Molecular target: Alexa488-labeled Nuc165 (human)
Test: fluorescence polarisation; HPF1 titrated from 16.8 μM to 0 μM into 5 nM Alexa488-labeled Nuc165; 50 mM Tris-HCl pH 8, 50 mM NaCl, 1 mM MgCl2, 0.1 mM EDTA, 0.1 mM TCEP, 0.01% NP-40; Hill model

Kd: 1450 nM
B1: Histone PARylation Factor 1 (natural protein)
chain: MVGGGGKRRPGGEGPQCEKTTDVKKSKFCEADVSSDLRKEVENHYKLSLPEDFYHFWKFCEELDPEKPSDSLSASLGLQLVGPYDILAGKHKTKKKSTGLNFNLHWRFYYDPPEFQTIIIGDNKTQYHMGYFRDSPDEFPVYVGINEAKKNCIIVPNGDNVFAAVKLFLTKKLREITDKKKINLLKNIDEKLTEAARELGYSLEQRTVKMKQRDKKVVTKTFHGAGLVVPVDKNDVGYRELPETDADLKRICKTIVEAASDEERLKAFAPIQEMMTFVQFANDECDYGMGLELGMDLFCYGSHYFHKVAGQLLPLAYNLLKRNLFAEIIEEHLANRSQENIDQLAA

From article PMC7608914
